To fix the notation:
T1: TLR2 transmembrane domain A597V (ToxR chimera), O60603
T1 chain: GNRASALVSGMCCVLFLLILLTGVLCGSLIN

T2: TLR1 transmembrane domain (ToxR chimera)
T2 chain: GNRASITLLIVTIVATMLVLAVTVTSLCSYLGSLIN

T3: TLR10 transmembrane domain (ToxR chimera)
T3 chain: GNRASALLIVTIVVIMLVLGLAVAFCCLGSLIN

T4: TLR2 transmembrane domain (ToxR chimera)
T4 chain: T1 chain with V14A

T5: TLR4 transmembrane domain (ToxR chimera)
T5 chain: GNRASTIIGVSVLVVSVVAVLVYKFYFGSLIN

T6: TLR5 transmembrane domain (ToxR chimera)
T6 chain: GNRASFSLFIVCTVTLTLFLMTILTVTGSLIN

T7: TLR6 transmembrane domain (ToxR chimera)
T7 chain: T2 chain with V14G, S29I

B1: TLR1 transmembrane domain (ToxR chimera) (domain or fragment)
chain: T2 chain
notes: flank encoded by the reading frame of the plasmid construct; Toll-like receptor 1 transmembrane domain, human, as identified by hydrophobic analysis; One molecule for the ToxR and the ToxR* form of this TMD; also called TLR1 TMD; source: E. coli FHK12, transformed with pTox7 or pTox6 plasmid, in the cells' membrane
B2: TLR6 transmembrane domain (ToxR chimera) (domain or fragment)
chain: T2 chain with V14G, S29I
notes: flank encoded by the reading frame of the plasmid construct; Toll-like receptor 6 transmembrane domain, human, as identified by hydrophobic analysis; One molecule for the ToxR and the ToxR* form of this TMD; also called TLR6 TMD; source: E. coli FHK12, transformed with pTox7 or pTox6 plasmid, in the cells' membrane
B3: TLR2 transmembrane domain (ToxR chimera) A597V (peptide)
chain: T1 chain
B4: TLR2 transmembrane domain (ToxR chimera) (domain or fragment)
chain: T1 chain with V14A
notes: flank encoded by the reading frame of the plasmid construct; Toll-like receptor 2 transmembrane domain, human, as identified by hydrophobic analysis; One molecule for the ToxR and the ToxR* form of this TMD; also called TLR2 TMD; wild type TLR2 TMD; source: E. coli FHK12, transformed with pTox7 or pTox6 plasmid, in the cells' membrane
B5: TLR2 transmembrane domain (ToxR chimera) G593V (peptide)
chain: T1 chain with G10V, V14A
B6: TLR10 transmembrane domain (ToxR chimera) (domain or fragment, human)
chain: T3 chain
notes: flank encoded by the reading frame of the plasmid construct; Toll-like receptor 10 transmembrane domain, human, as identified by hydrophobic analysis; One molecule for the ToxR and the ToxR* form of this TMD; also called TLR10 TMD; source: E. coli FHK12, transformed with pTox7 or pTox6 plasmid, in the cells' membrane

Assay [1] has as its system homotypic TMD-TMD interaction (ToxR / ctx promoter / β-galactosidase reporter in FHK12 E. coli). The assay is described as follows: Homotypic ToxR reporter assay (β-galactosidase). It counts as cell-based. The following applies: homotypic ToxR assay, compared with wild type TLR2 TMD (Fig. 7A). How it is done: . Various plasmid constructs for this assay make it possible to monitor both homotypic and heterotypic interactions that are driven by TMD-TMD association (Fig. S1).
We first investigated homotypic interactions because the majority of the TLR family members function as homodimers. […] This ΔTM construct consists of the same maltose binding protein and ToxR domain, but lacks a TMD for proper membrane insertion (Fig. S2). Statistical analysis using the Tukey-Kramer test was performed to analyze any significant differences between all possible pairs of average interaction potentials (Table S2). […] Among the TLRs, no discernable differences in grouping based on statistical analysis at p = 0.05 were indicated as all receptors belonged to multiple groups, except for TLR1, which with the lowest interaction potential among the family of receptors only existed in one group (Table S1).
Figure 2 Toll-like Receptor Transmembrane Domain Homotypic Interactions. (A) The ToxR assay was used to study homotypic interactions of the TLR TMDs. A chimeric protein expressing the TMD of interest was monitored through β-galactosidase activity. In all cases, we saw that the TLRs have interaction potential solely from TMD-TMD interactions. Each TLR TMD interaction measurement analysis was performed on 3 technical replicates with >6 measurements for each replicate. Error bars depict the standard error of the mean (n – Table S1). Western blots staining for MBP were performed to monitor expression levels of the constructs – (B) chimeric maltose binding protein expression, (C) endogenous maltose binding protein expression. All samples were normalized to the GpA signal and expression levels.
Briefly, the ToxR plasmids containing the TMD of interest (200 ng) were transformed into chemically competent FHK12 E. coli (200 µL) by incubating on ice for 30 min, heat shock at 42°C for 90 s, incubation on ice for 2 min, and addition of SOC media (800 µL) followed by incubation with shaking for 1 h at 37°C. This transformation mixture (50 µL) was then spread on LB agar plates containing cholaramphenicol (30 µg/mL) and ampicillin (100 µg/mL) and grown overnight at 37°C. Single colonies were selected from the plates in triplicate and added to 5 mL of LB media containing cholaramphenicol (30 µg/mL), ampicillin (100 µg/mL), and arabinose (0.0025%). These cultures were incubated overnight (16–20 h) with shaking at 37°C. The β-galactosidase activity was monitored using a Beckman Coulter DTX 880 plate-reader. First 5 µL of each culture was plated >6 times in a clear 96-well flat bottom culture plate (Sarstedt) containing 100 µL of Z-buffer/chloroform (1% β-mercaptoethanol, 10% chloroform, 89% Z buffer: […], 10 mM potassium chloride, 1 mM magnesium sulfate, pH 7.0). The cell densities of each well were recorded by measuring the OD595. Bacteria were lysed by the addition of 50 µL Z-buffer/SDS (1.6% sodium dodecyl sulfate w/v in Z-buffer) and shaking at 28°C for 10 min. Enzymatic activity was measured by adding 50 µL of Z-buffer/ortho-Nitrophenyl-β-[…] (ONPG) (0.4% ONPG w/v in Z-buffer) and monitoring the reaction at 405 nm for a period of 20 min at 30 s intervals. Miller units were calculated using the equation: [drawing 1]
Western blotting was performed with antiserum recognizing the maltose-binding protein moiety of the constructs (Abcam). Data were normalized to GpA Miller Units and protein expression levels using ImageJ (NIH) as reported previously.
On the technique in general: Reporter assays use an easily measured gene product as a stand-in for the process of interest.

Assay [2] relates to heterotypic interactions of the TLR2 TMD. The assay is described as follows: Heterotypic ToxR assay of TLR2 point mutants. It counts as cell-based, E. coli. The following applies: compared with native TLR2 TMD (Fig. 7B). The source says: To investigate if these residues were involved in the homotypic or heterotypic interactions we performed site-directed mutagenesis at key positions in the TLR2 TMD – Gly593Val, Ala597Val, and Cys609Ile – and tested these mutants in both homotypic and heterotypic ToxR assays.
Figure 7 Toll-like Receptor 2 Interaction Interface Studied by Mutagenesis. TLR2 residues were mutated to study effects on homotypic and heterotypic interactions using the ToxR assay. These mutations were at positions identified in the sequence as likely interaction locations. (A) Homotypic interactions of point mutations show no difference in interaction potential from wild-type TLR2 TMD. (B) Heterotypic interactions of point mutations show the potential importance of both the Ala597 and Cys609 positions for heterotypic interactions. […]
For heterotypic interactions one plasmid containing a functional ToxR domain (200 ng) and a second plasmid containing a non-functional ToxR* domain (200 ng) were co-transformed into chemically competent FHK12 E. coli (400 µL) by incubating on ice for 30 min, heat shock at 42°C for 90 s, incubation on ice for 2 min, and addition of SOC media (1600 µL) followed by incubation with shaking for 1 h at 37°C. […] Analysis of activity was monitored as described in homotypic ToxR assays. […]

Assay [3] deals with B4. Description: dominant-negative ToxR reporter assay; heterotypic; one TMD with functional ToxR (dominant phenotype) and one with non-functional ToxR* (negative phenotype) co-expressed in E. coli FHK12; interaction read as reduction of β-galactosidase signal; normalised to poly-Leu* and to expression levels. The note with it: partners not purified.
In assay [4] the target is B2. Described as above. The following applies: partners not purified.
Assay [5] addresses B1. The assay is described as above. The following applies: partners not purified.
The target of assay [6] is T1, TLR2 transmembrane domain A597V (ToxR …). Description: homotypic ToxR assay. The following applies: chain shown with the change; higher signal = more homotypic TMD association; parent: est. 1.0; read off a plot.
For assay [7], the target named is T2, TLR1 transmembrane domain (ToxR chimera). The assay is described as follows: heterotypic ToxR assay. The note with it: chain shown with the change; competitor TLR1* (nonfunctional ToxR* chimera); PolyLeu* = 1.0; lower signal = more ToxR inhibition = more interaction; parent: est. 0.47; read off a plot.
For assay [8], the target named is T3, TLR10 transmembrane domain (ToxR …). The assay is described as follows: heterotypic ToxR assay. The note with it: chain shown with the change; competitor TLR10* (nonfunctional ToxR* chimera); PolyLeu* = 1.0; lower signal = more ToxR inhibition = more interaction; parent: est. 0.41; read off a plot.
In assay [9] the target is T4, TLR2 transmembrane domain (ToxR chimera). The assay is described as follows: heterotypic ToxR assay. The note with it: chain shown with the change; competitor TLR2* (nonfunctional ToxR* chimera); PolyLeu* = 1.0; lower signal = more ToxR inhibition = more interaction; parent: est. 0.42; read off a plot.
For assay [10], the target named is T5, TLR4 transmembrane domain (ToxR chimera). The assay is described as follows: heterotypic ToxR assay. The note with it: chain shown with the change; competitor TLR4* (nonfunctional ToxR* chimera); PolyLeu* = 1.0; lower signal = more ToxR inhibition = more interaction; parent: est. 0.90; read off a plot.
In assay [11] the target is T6, TLR5 transmembrane domain (ToxR chimera). The assay is described as follows: heterotypic ToxR assay. The following applies: chain shown with the change; competitor TLR5* (nonfunctional ToxR* chimera); PolyLeu* = 1.0; lower signal = more ToxR inhibition = more interaction; parent: est. 0.53; read off a plot.
Assay [12] concerns the target T7, TLR6 transmembrane domain (ToxR chimera). Description: heterotypic ToxR assay. The following applies: chain shown with the change; competitor TLR6* (nonfunctional ToxR* chimera); PolyLeu* = 1.0; lower signal = more ToxR inhibition = more interaction; parent: est. 0.24; read off a plot.

Positions count from the first letter of the chain named. In names and notes the source's numbering stands. No end group written: not given here.

Consider “TLR2 A597V: TLR2 TMD ToxR construct with point mutation Ala597Val (GNRASALVSGMCCVLFLLILLTGVLCGSLIN; cysteine pairing not given here; also: fused to ToxR activation domain and maltose binding protein, ends not given here)”, for which the “Effect of TLR2 point mutation on homotypic interaction” value in [1] is “no mutation demonstrated significant difference from the wild type TLR2 TMD”. Also, in assay [2], the “Effect of TLR2 point mutation on heterotypic interactions” value was “capable of reducing the ToxR inhibition demonstrated by the native TLR2 TMD”.

For the molecule “TLR2 C609I: TLR2 TMD ToxR construct with point mutation Cys609Ile (GNRASALVSGMCCALFLLILLTGVLIGSLIN; cysteine pairing not given here; also: fused to ToxR activation domain and maltose binding protein, ends not given here)”, in assay [1], the “Effect of TLR2 point mutation on homotypic interaction” value is on record as “no mutation demonstrated significant difference from the wild type TLR2 TMD”. Moreover, the “Effect of TLR2 point mutation on heterotypic interactions” value in assay [2] is “capable of reducing the ToxR inhibition demonstrated by the native TLR2 TMD”.

Regarding B1, the “reduction in signal from the homotypic interaction” value (shortened to “reduction in signal”) in [3] and in [4] was above 60% in each case.

Consider B2, for which the “reduction in signal” value in assay [5] and in assay [3] was above 60% each time.

With B3, the response (normalized Miller units) came to 1 in assay [6]; 1 in assay [7]; 1.2 in [8]; 0.8 in [9]; 1.1 in assay [10]; 1 in assay [11]. The response (normalized Miller units) in assay [12] was determined as 0.82.

In the case of B4, the “reduction in signal” value in assay [5] and in [4] was above 60% in each case.

Turning to B5, the response (normalized Miller units) came out at 0.58 in assay [7]; 0.5 in [8]; 0.44 in assay [9]; 0.95 in assay [10]; 0.48 in [11]; 0.54 in assay [12].

For the molecule B6, the “reduction in signal” value in assay [5], in [3] and in assay [4] was above 60% in each case.

For the origin of these results see publication PMC3498381, “Isolated Toll-like Receptor Transmembrane Domains Are Capable of Oligomerization” (PLoS ONE, 2012).
